This is an account of results in PMC6090299, “Quantitative Analysis of Interaction Between CADM1 and Its Binding Cell-Surface Proteins Using Surface Plasmon Resonance Imaging” (Frontiers in Cell and Developmental Biology, 2018).

The target in this assay is T1, CADM1-Fc (human (by the printed RefSeq entry), UniProt Q9BY67-1 45-374).
T1 construct: signal peptide in the construct; CADM1 extracellular domain, NP_055148, 1-374 a.a; Human IgG2-Fc fragment from pFUSE-hIgG2-Fc1; Glycosylated; also called cell adhesion molecule 1 extracellular domain fused with Fc; source: FreeStyle 293-F cells, transiently transfected, purified from the supernatant (Protein G Sepharose); not shown: Fc (human IgG2), C-terminal, kept
T1 sequence (looked up): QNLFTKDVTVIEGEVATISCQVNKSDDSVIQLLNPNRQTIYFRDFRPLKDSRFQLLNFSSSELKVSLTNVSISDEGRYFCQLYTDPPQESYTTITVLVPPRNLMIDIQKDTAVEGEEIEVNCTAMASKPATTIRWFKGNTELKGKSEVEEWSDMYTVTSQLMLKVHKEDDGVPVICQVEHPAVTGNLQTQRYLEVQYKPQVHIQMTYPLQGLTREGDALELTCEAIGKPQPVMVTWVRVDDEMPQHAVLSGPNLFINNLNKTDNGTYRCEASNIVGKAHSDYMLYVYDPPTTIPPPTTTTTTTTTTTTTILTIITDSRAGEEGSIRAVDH
Briefly: SPR; SPR imaging (OpenPlex); the 10 IgSF-Fc proteins (7-24 μM) spotted in hexaplicate and immobilised by amine coupling; 2.4 μM CADM1-Fc injected for 4 min; 25°C; PBS with 0.2% BSA and 0.02% Tween20, 50 μL/min; signal of normal human IgG subtracted. Conditions: both partners purified. Background: In SPR one partner is held on a chip, and binding of the other changes the refractive index at the surface.

What is called Kd is a measure of binding affinity in units of concentration. High values mean lower affinity, low ones higher affinity. One may read the koff as a measure of how fast the partners let go of each other. A high value points to fast dissociation. One may read the kon as the second-order rate constant of association. Read a high kon as faster complex formation.

B1: CRTAM-Fc (Fc fusion, human (by the printed RefSeq entry), UniProt O95727-1 18-287, looked up)
chain: SLTNHTETITVEEGQTLTLKCVTSLRKNSSLQWLTPSGFTIFLNEYPALKNSKYQLLHHSANQLSITVPNVTLQDEGVYKCLHYSDSVSTKEVKVIVLATPFKPILEASVIRKQNGEEHVVLMCSTMRSKPPPQITWLLGNSMEVSGGTLHEFETDGKKCNTTSTLIIHTYGKNSTVDCIIRHRGLQGRKLVAPFRFEDLVTDEETASDALERNSLSSQDPQQPTSTVSVTEDSSTSEIDKEEKEQTTQDPDLTTEANPQYLGLARKKSG
notes: signal peptide in the construct; CRTAM extracellular domain, NP_062550, 1-287 a.a; Human IgG2-Fc fragment from pFUSE-hIgG2-Fc1; also called class-I MHC-restricted T-cell-associated molecule; source: FreeStyle 293-F cells, transiently transfected, purified from the supernatant (Protein G Sepharose); not shown: Fc (human IgG2), C-terminal, kept
Take B1: the Kd was 3.3 nM, the koff was found to be 0.00011 s⁻¹ and the kon came out at 31000 M⁻¹ s⁻¹.
